# Patent US20210388110A1 (published 2021)
# Numbering of substitutions follows the chain as printed.
# B1: H0610-G1dh/none-Hi-Kn010G3/L0243-k0 (antibody, human IgG1, kappa)
# heavy: not shown
# chain: EPKSSDKTHTCPPCPAPELLGGPSVFLFPPKPKDTLMISRTPEVTCVVVDVSHEDPEVKFNWYVDGVEVHNAKTKPREEQYNSTYRVVSVLTVLHQDWLNGKEYKCKVSNKALPAPIEKTISKAKGQPREPQVCTLPPSRDELTKNQVSLWCLVKGFYPSDIAVEWESNGQPENNYKTTPPVLDSDGSFFLYSKLTVDKSRWQQGNVFSCSVMHEALHNRYTQKSLSLSP
# light: DIVMTQSPLSLPVTPGEPASISCRSSEPPVHSNRNTYLHWYQQKPGQAPRLLIYKVSNRFRGVPDRFSGSGSGTDFTLKISRVEAEDVGVYYCGQGTQVPYTFGQGTKLEIKRTVAAPSVFIFPPSDEQLKSGTASVVCLLNNFYPREAKVQWKVDNALQSGNSQESVTEQDSKDSTYSLSSTLTLSKADYEKHKVYACEVTHQGLSSPVTKSFNRGEC
# notes: single-arm (one Fab)
# B2: H0610-G1dh/none-Hi-Kn010G3/L0000vk1-k0 (antibody, human IgG1, kappa)
# heavy: not shown
# chain: B1 chain
# light: DIQMTQSPSSLSASVGDRVTITCRSSQSLVHSNRNTYLHWYQQKPGKAPKLLIYKVSNRFSGVPSRFSGSGSGTDFTFTISSLQPEDIATYYCGQGTQVPYTFGQGTKVEIKRTVAAPSVFIFPPSDEQLKSGTASVVCLLNNFYPREAKVQWKVDNALQSGNSQESVTEQDSKDSTYSLSSTLTLSKADYEKHKVYACEVTHQGLSSPVTKSFNRGEC
# notes: single-arm (one Fab)
# B3: H0610-G1dh/none-Hi-Kn010G3/TR01L018-k0 (antibody, human IgG1, kappa)
# heavy: not shown
# chain: B1 chain
# light: B1 light with R24Q, S25A, P28S, Q42L, A48S, R50Q, R61S
# notes: single-arm (one Fab)
# B4: H0610-G1dh/none-Hi-Kn010G3/L0268-k0 (antibody, human IgG1, kappa)
# heavy: not shown
# chain: B1 chain
# light: B1 light with E27Q, P28S, L38I, H39Q, R61S, G94V
# notes: single-arm (one Fab)
# B5: H0610-G1dh/none-Hi-Kn010G3/TR01L015-k0 (antibody, human IgG1, kappa)
# heavy: not shown
# chain: B1 chain
# light: B1 light with E27Q, P28S, Q42L, A48S, R50Q, R61S
# notes: single-arm (one Fab)
# B6: H0610-G1dh/none-Hi-Kn010G3/L0261-k0 (antibody, human IgG1, kappa)
# heavy: not shown
# chain: B1 chain
# light: B1 light with E27Q, P28S, L38I, H39Q, R61S, G94T
# notes: single-arm (one Fab)
# B7: H0610-G1dh/none-Hi-Kn010G3/TR01L012-k0 (antibody, human IgG1, kappa)
# heavy: not shown
# chain: B1 chain
# light: B1 light with E27Q, P28S, P29L, Q42L, A48S, R50Q, L109V, K112E
# notes: single-arm (one Fab)
# B8: H0610-G1dh/none-Hi-Kn010G3/L0259-k0 (antibody, human IgG1, kappa)
# heavy: not shown
# chain: B1 chain
# light: B1 light with E27Q, P28S, L38I, R61S, G94T
# notes: single-arm (one Fab)
# B9: H0610-G1dh/none-Hi-Kn010G3/TR01L008-k0 (antibody, human IgG1, kappa)
# heavy: not shown
# chain: B1 chain
# light: B1 light with R24Q, S25A, P28S, P29L
# notes: single-arm (one Fab)
# B10: H0610-G1dh/none-Hi-Kn010G3/TR01L020-k0 (antibody, human IgG1, kappa)
# heavy: not shown
# chain: B1 chain
# light: B1 light with R24Q, S25A, P28S, L38I, H39Q, Q42L, A48S, R50Q, R61S, G94Y
# notes: single-arm (one Fab)
# B11: H0610-G1dh/none-Hi-Kn010G3/L0269-k0 (antibody, human IgG1, kappa)
# heavy: not shown
# chain: B1 chain
# light: B1 light with E27Q, P28S, L38I, H39Q, R61S
# notes: single-arm (one Fab)
# B12: H0610-G1dh/none-Hi-Kn010G3/TR01L010-k0 (antibody, human IgG1, kappa)
# heavy: not shown
# chain: B1 chain
# light: B1 light with E27Q, P28S, P29L, L109V, K112E
# notes: single-arm (one Fab)
# B13: H0610-G1dh/none-Hi-Kn010G3/TR01L011-k0 (antibody, human IgG1, kappa)
# heavy: not shown
# chain: B1 chain
# light: B1 light with R24Q, S25A, P28S, P29L, L109V, K112E
# notes: single-arm (one Fab)
# B14: H0610-G1dh/none-Hi-Kn010G3/L0263-k0 (antibody, human IgG1, kappa)
# heavy: not shown
# chain: B1 chain
# light: B1 light with E27Q, P28S, L38I, R61S, G94A
# notes: single-arm (one Fab)
# B15: H0610-G1dh/none-Hi-Kn010G3/L0248-k0 (antibody, human IgG1, kappa)
# heavy: not shown
# chain: B1 chain
# light: B1 light with S25P, E27Q, P28S, L38I, H39Q, R61S, G94Y
# notes: single-arm (one Fab)
# B16: H0610-G1dh/none-Hi-Kn010G3/L0264-k0 (antibody, human IgG1, kappa)
# heavy: not shown
# chain: B1 chain
# light: B1 light with S25P, E27Q, P28S, R61S, G94A
# notes: single-arm (one Fab)
# B17: H0610-G1dh/none-Hi-Kn010G3/L0258-k0 (antibody, human IgG1, kappa)
# heavy: not shown
# chain: B1 chain
# light: B1 light with E27Q, R61S, G94T
# notes: single-arm (one Fab)
# B18: H0610-G1dh/none-Hi-Kn010G3/L0266-k0 (antibody, human IgG1, kappa)
# heavy: not shown
# chain: B1 chain
# light: B1 light with E27Q, R61S, G94V
# notes: single-arm (one Fab)
# B19: H0610-G1dh/none-Hi-Kn010G3/TR01L019-k0 (antibody, human IgG1, kappa)
# heavy: not shown
# chain: B1 chain
# light: B1 light with R24Q, S25A, P28S, Q42L, A48S, R50Q, R61S, G94Y
# notes: single-arm (one Fab)
# B20: H0610-G1dh/none-Hi-Kn010G3/L0265-k0 (antibody, human IgG1, kappa)
# heavy: not shown
# chain: B1 chain
# light: B1 light with E27Q, P28S, L38I, H39Q, R61S, G94A
# notes: single-arm (one Fab)
# B21: H0610-G1dh/none-Hi-Kn010G3/TR01L009-k0 (antibody, human IgG1, kappa)
# heavy: not shown
# chain: B1 chain
# light: B1 light with E27Q, P28S, P29L, Q42L, A48S, R50Q
# notes: single-arm (one Fab)
# B22: H0610-G1dh/none-Hi-Kn010G3/L0262-k0 (antibody, human IgG1, kappa)
# heavy: not shown
# chain: B1 chain
# light: B1 light with E27Q, R61S, G94A
# notes: single-arm (one Fab)
# B23: H0610-G1dh/none-Hi-Kn010G3/TR01L017-k0 (antibody, human IgG1, kappa)
# heavy: not shown
# chain: B1 chain
# light: B1 light with E27Q, P28S, L38I, H39Q, Q42L, A48S, R50Q, R61S, G94Y
# notes: single-arm (one Fab)
# B24: H0610-G1dh/none-Hi-Kn010G3/L0267-k0 (antibody, human IgG1, kappa)
# heavy: not shown
# chain: B1 chain
# light: B1 light with S25P, E27Q, P28S, R61S, G94V
# notes: single-arm (one Fab)
# B25: H0610-G1dh/none-Hi-Kn010G3/L0249-k0 (antibody, human IgG1, kappa)
# heavy: not shown
# chain: B1 chain
# light: B1 light with S25P, E27Q, P28S, L38I, H39Q, R61S, G94S
# notes: single-arm (one Fab)
# B26: H0610-G1dh/none-Hi-Kn010G3/L0246-k0 (antibody, human IgG1, kappa)
# heavy: not shown
# chain: B1 chain
# light: B1 light with E27Q, P28S, L38I, H39Q, R61S, G94S
# notes: single-arm (one Fab)
# B27: H0610-G1dh/none-Hi-Kn010G3/TR01L016-k0 (antibody, human IgG1, kappa)
# heavy: not shown
# chain: B1 chain
# light: B1 light with E27Q, P28S, Q42L, A48S, R50Q, R61S, G94Y
# notes: single-arm (one Fab)
# Target: T1, soluble human GPC3 (human, UniProt P51654 25-563, limits assumed)
# T1 construct: soluble human GPC3 as analyte; also called glypican 3
# Test: SPR (Biacore), soluble human GPC3
# T1 sequence (P51654 other isoform, or with tags, fused parts or gaps limits assumed, form in doubt): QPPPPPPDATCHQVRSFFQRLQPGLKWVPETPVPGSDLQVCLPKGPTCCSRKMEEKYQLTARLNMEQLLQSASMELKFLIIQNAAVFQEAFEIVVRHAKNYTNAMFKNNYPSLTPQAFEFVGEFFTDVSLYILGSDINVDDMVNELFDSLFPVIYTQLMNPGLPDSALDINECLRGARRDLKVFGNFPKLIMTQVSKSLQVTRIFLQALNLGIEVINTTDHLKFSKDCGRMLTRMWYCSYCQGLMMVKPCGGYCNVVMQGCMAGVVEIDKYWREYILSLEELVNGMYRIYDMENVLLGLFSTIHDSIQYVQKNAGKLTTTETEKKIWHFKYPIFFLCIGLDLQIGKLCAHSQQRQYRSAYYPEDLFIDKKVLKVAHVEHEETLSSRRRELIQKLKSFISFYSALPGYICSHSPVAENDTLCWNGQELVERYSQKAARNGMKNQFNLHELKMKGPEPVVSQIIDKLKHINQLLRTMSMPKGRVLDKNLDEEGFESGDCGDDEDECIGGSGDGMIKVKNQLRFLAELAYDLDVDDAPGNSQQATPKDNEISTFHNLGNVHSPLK
row,Kd,Binder
1,0.649 nM,B1
2,2.16 nM,B2
3,2.17 nM,B3
4,0.0169 nM,B4
5,2.16 nM,B5
6,0.0107 nM,B6
7,4.25 nM,B7
8,0.334 nM,B8
9,3.48 nM,B9
10,0.0224 nM,B10
11,0.459 nM,B11
12,2.92 nM,B12
13,4.02 nM,B13
14,0.564 nM,B14
15,0.0555 nM,B15
16,0.219 nM,B16
17,0.000352 nM,B17
18,0.213 nM,B18
19,1.15 nM,B19
20,0.0087 nM,B20
21,3.81 nM,B21
22,0.211 nM,B22
23,0.00827 nM,B23
24,0.179 nM,B24
25,0.00686 nM,B25
26,0.00121 nM,B26
27,1.08 nM,B27
